Where only a bound is given, the exact number is not on record here.

This experiment concerns the target CD44 receptors on SMMC-7721-SC2 hepatocellular carcinoma cells (human) (UniProt P16070). The experiment is described as follows: cell-based or functional assay.

CD44 receptors on SMMC-7721-SC2 hepatocellular carcinoma cells (human), sequence (P16070 21-742): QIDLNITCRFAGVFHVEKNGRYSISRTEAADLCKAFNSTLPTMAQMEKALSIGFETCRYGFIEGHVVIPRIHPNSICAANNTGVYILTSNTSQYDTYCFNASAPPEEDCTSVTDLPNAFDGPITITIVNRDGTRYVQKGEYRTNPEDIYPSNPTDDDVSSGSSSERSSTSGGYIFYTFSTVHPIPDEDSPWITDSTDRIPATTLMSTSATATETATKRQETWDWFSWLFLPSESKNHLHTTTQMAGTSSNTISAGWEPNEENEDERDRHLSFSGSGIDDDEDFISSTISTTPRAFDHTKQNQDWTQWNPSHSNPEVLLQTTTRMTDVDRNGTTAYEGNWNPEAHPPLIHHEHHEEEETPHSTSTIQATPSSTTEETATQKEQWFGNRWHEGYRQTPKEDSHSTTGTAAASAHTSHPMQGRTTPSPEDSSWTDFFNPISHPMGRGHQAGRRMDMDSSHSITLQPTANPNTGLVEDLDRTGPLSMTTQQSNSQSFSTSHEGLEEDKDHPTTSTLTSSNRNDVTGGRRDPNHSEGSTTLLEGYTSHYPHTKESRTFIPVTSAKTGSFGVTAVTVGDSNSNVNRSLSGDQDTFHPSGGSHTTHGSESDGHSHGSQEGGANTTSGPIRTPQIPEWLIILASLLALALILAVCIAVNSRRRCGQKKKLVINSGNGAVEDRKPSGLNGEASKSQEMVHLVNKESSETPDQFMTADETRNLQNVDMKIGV

Regarding “OPN-5 kD expressed from the pDest-490 vector with C-terminal 1xFLAG tag (from UniProt P10451 167-210) (ligand)”, the cellular invasion of SMMC-7721-SC2 cells through Matrigel, 36 hours was > 2 fold.
